Measurements as given in US20140087995A1 (published 2014).
Numbered stars: 1 amine (or outer) side, 2 acyl side, 3 side chain; on linkers, the order of the positions; unused ones are H or OH. Bridge positions count the residues as written; N and C are the ends. Side chains are listed from the residue outwards. Ends that are not written are not given here. * marks the point of attachment. C20 diacid = O=C(O)CCCCCCCCCCCCCCCCCCC(=O)*; γGlu = O=C(O)[C@H](CCC(=O)[*:2])N[*:1]

T1: human amylin 3(a) receptor (human calcitonin receptor plus RAMP-3) (human, UniProt P30988 25-474; O60896 24-148, limits assumed)
T1 sequence (looked up) 1: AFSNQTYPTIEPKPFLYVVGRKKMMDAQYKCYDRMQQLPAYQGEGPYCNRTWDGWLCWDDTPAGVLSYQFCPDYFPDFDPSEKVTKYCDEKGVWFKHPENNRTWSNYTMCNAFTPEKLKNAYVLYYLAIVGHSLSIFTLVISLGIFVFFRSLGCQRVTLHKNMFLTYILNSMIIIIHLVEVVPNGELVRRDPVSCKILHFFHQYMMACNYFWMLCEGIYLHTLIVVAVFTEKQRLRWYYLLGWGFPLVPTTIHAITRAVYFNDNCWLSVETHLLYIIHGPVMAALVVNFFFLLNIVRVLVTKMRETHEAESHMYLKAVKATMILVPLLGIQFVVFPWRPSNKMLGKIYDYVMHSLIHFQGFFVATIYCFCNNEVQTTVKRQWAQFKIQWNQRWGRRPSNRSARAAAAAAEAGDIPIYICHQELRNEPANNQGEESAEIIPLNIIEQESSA
T1 sequence (looked up) 2: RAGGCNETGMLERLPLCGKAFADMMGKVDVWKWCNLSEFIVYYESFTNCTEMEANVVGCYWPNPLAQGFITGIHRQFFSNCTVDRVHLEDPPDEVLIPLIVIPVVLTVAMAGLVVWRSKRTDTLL

T2: human calcitonin receptor (human, UniProt P30988 25-474)
T2 sequence (looked up): T1 sequence (looked up) 1

B1: N^α1-[(4S)-4-carboxy-4-(19-carboxynonadecanoylamino)butanoyl]-[Glu14,Arg17,Pro21,Pro27,Pro34]-h-amylin (peptide)
peptide: {C20 diacid-γGlu}-KCNTATCATQRLAEFLRHSSPNFGAIPSSTNVGPNTY-NH2
modifications: disulfide 2-7
SMILES: CC[C@H](C)[C@H](NC(=O)[C@H](C)NC(=O)CNC(=O)[C@H](Cc1ccccc1)NC(=O)[C@H](CC(N)=O)NC(=O)[C@@H]1CCCN1C(=O)[C@H](CO)NC(=O)[C@H](CO)NC(=O)[C@H](Cc1c[nH]cn1)NC(=O)[C@H](CCCNC(=N)N)NC(=O)[C@H](CC(C)C)NC(=O)[C@H](Cc1ccccc1)NC(=O)[C@H](CCC(=O)O)NC(=O)[C@H](C)NC(=O)[C@H](CC(C)C)NC(=O)[C@H](CCCNC(=N)N)NC(=O)[C@H](CCC(N)=O)NC(=O)[C@@H](NC(=O)[C@H](C)NC(=O)[C@@H]1CSSC[C@H](NC(=O)[C@H](CCCCN)NC(=O)CC[C@H](NC(=O)CCCCCCCCCCCCCCCCCCC(=O)O)C(=O)O)C(=O)N[C@@H](CC(N)=O)C(=O)N[C@@H]([C@@H](C)O)C(=O)N[C@@H](C)C(=O)N[C@@H]([C@@H](C)O)C(=O)N1)[C@@H](C)O)C(=O)N1CCC[C@H]1C(=O)N[C@@H](CO)C(=O)N[C@@H](CO)C(=O)N[C@H](C(=O)N[C@@H](CC(N)=O)C(=O)N[C@H](C(=O)NCC(=O)N1CCC[C@H]1C(=O)N[C@@H](CC(N)=O)C(=O)N[C@H](C(=O)N[C@@H](Cc1ccc(O)cc1)C(N)=O)[C@@H](C)O)C(C)C)[C@@H](C)O
notes: also called compound 32
B2: N^α1-[(4S)-4-carboxy-4-(19-carboxynonadecanoylamino)butanoyl]-[Glu14,Arg17,Pro21,Pro28,Glu35]-h-amylin (peptide)
peptide: {C20 diacid-γGlu}-KCNTATCATQRLAEFLRHSSPNFGAILPSTNVGSETY-NH2
modifications: disulfide 2-7
notes: also called compound 33
B3: N^α1-[(4S)-4-carboxy-4-(19-carboxynonadecanoylamino)butanoyl]-[Glu14,Arg17,Pro21,Pro27,Pro37]-h-amylin (peptide)
peptide: {C20 diacid-γGlu}-KCNTATCATQRLAEFLRHSSPNFGAIPSSTNVGSNTP-NH2
modifications: disulfide 2-7
SMILES: CC[C@H](C)[C@H](NC(=O)[C@H](C)NC(=O)CNC(=O)[C@H](Cc1ccccc1)NC(=O)[C@H](CC(N)=O)NC(=O)[C@@H]1CCCN1C(=O)[C@H](CO)NC(=O)[C@H](CO)NC(=O)[C@H](Cc1c[nH]cn1)NC(=O)[C@H](CCCNC(=N)N)NC(=O)[C@H](CC(C)C)NC(=O)[C@H](Cc1ccccc1)NC(=O)[C@H](CCC(=O)O)NC(=O)[C@H](C)NC(=O)[C@H](CC(C)C)NC(=O)[C@H](CCCNC(=N)N)NC(=O)[C@H](CCC(N)=O)NC(=O)[C@@H](NC(=O)[C@H](C)NC(=O)[C@@H]1CSSC[C@H](NC(=O)[C@H](CCCCN)NC(=O)CC[C@H](NC(=O)CCCCCCCCCCCCCCCCCCC(=O)O)C(=O)O)C(=O)N[C@@H](CC(N)=O)C(=O)N[C@@H]([C@@H](C)O)C(=O)N[C@@H](C)C(=O)N[C@@H]([C@@H](C)O)C(=O)N1)[C@@H](C)O)C(=O)N1CCC[C@H]1C(=O)N[C@@H](CO)C(=O)N[C@@H](CO)C(=O)N[C@H](C(=O)N[C@@H](CC(N)=O)C(=O)N[C@H](C(=O)NCC(=O)N[C@@H](CO)C(=O)N[C@@H](CC(N)=O)C(=O)N[C@H](C(=O)N1CCC[C@H]1C(N)=O)[C@@H](C)O)C(C)C)[C@@H](C)O
notes: also called compound 8
B4: N^α1-[(4S)-4-carboxy-4-[[(4S)-4-carboxy-4-(19-carboxynonadecanoylamino)butanoyl]amino]butanoyl]-[Glu14,Arg17,Pro21,Pro27,Pro37]-h-amylin (peptide)
peptide: {C20 diacid-γGlu-γGlu}-KCNTATCATQRLAEFLRHSSPNFGAIPSSTNVGSNTP-NH2
modifications: disulfide 2-7
SMILES: CC[C@H](C)[C@H](NC(=O)[C@H](C)NC(=O)CNC(=O)[C@H](Cc1ccccc1)NC(=O)[C@H](CC(N)=O)NC(=O)[C@@H]1CCCN1C(=O)[C@H](CO)NC(=O)[C@H](CO)NC(=O)[C@H](Cc1c[nH]cn1)NC(=O)[C@H](CCCNC(=N)N)NC(=O)[C@H](CC(C)C)NC(=O)[C@H](Cc1ccccc1)NC(=O)[C@H](CCC(=O)O)NC(=O)[C@H](C)NC(=O)[C@H](CC(C)C)NC(=O)[C@H](CCCNC(=N)N)NC(=O)[C@H](CCC(N)=O)NC(=O)[C@@H](NC(=O)[C@H](C)NC(=O)[C@@H]1CSSC[C@H](NC(=O)[C@H](CCCCN)NC(=O)CC[C@H](NC(=O)CC[C@H](NC(=O)CCCCCCCCCCCCCCCCCCC(=O)O)C(=O)O)C(=O)O)C(=O)N[C@@H](CC(N)=O)C(=O)N[C@@H]([C@@H](C)O)C(=O)N[C@@H](C)C(=O)N[C@@H]([C@@H](C)O)C(=O)N1)[C@@H](C)O)C(=O)N1CCC[C@H]1C(=O)N[C@@H](CO)C(=O)N[C@@H](CO)C(=O)N[C@H](C(=O)N[C@@H](CC(N)=O)C(=O)N[C@H](C(=O)NCC(=O)N[C@@H](CO)C(=O)N[C@@H](CC(N)=O)C(=O)N[C@H](C(=O)N1CCC[C@H]1C(N)=O)[C@@H](C)O)C(C)C)[C@@H](C)O
notes: also called compound 14
B5: N^ε1-[(4S)-4-carboxy-4-(19-carboxynonadecanoylamino)butanoyl]-[Glu14,Arg17,Pro21,Pro27,Arg34,Glu35]-h-amylin (peptide)
peptide: K([γGlu-C20 diacid])CNTATCATQRLAEFLRHSSPNFGAIPSSTNVGRETY-NH2
modifications: disulfide 2-7; N-terminus assumed
SMILES: CC[C@H](C)[C@H](NC(=O)[C@H](C)NC(=O)CNC(=O)[C@H](Cc1ccccc1)NC(=O)[C@H](CC(N)=O)NC(=O)[C@@H]1CCCN1C(=O)[C@H](CO)NC(=O)[C@H](CO)NC(=O)[C@H](Cc1c[nH]cn1)NC(=O)[C@H](CCCNC(=N)N)NC(=O)[C@H](CC(C)C)NC(=O)[C@H](Cc1ccccc1)NC(=O)[C@H](CCC(=O)O)NC(=O)[C@H](C)NC(=O)[C@H](CC(C)C)NC(=O)[C@H](CCCNC(=N)N)NC(=O)[C@H](CCC(N)=O)NC(=O)[C@@H](NC(=O)[C@H](C)NC(=O)[C@@H]1CSSC[C@H](NC(=O)[C@@H](N)CCCCNC(=O)CC[C@H](NC(=O)CCCCCCCCCCCCCCCCCCC(=O)O)C(=O)O)C(=O)N[C@@H](CC(N)=O)C(=O)N[C@@H]([C@@H](C)O)C(=O)N[C@@H](C)C(=O)N[C@@H]([C@@H](C)O)C(=O)N1)[C@@H](C)O)C(=O)N1CCC[C@H]1C(=O)N[C@@H](CO)C(=O)N[C@@H](CO)C(=O)N[C@H](C(=O)N[C@@H](CC(N)=O)C(=O)N[C@H](C(=O)NCC(=O)N[C@@H](CCCNC(=N)N)C(=O)N[C@@H](CCC(=O)O)C(=O)N[C@H](C(=O)N[C@@H](Cc1ccc(O)cc1)C(N)=O)[C@@H](C)O)C(C)C)[C@@H](C)O
B6: N^α1N^α1-[(4S)-4-carboxy-4-(19-carboxynonadecanoylamino)butanoyl]-[Glu14,Arg17,Pro21,Pro27,Glu35]-h-amylin (peptide)
peptide: {C20 diacid-γGlu}-KCNTATCATQRLAEFLRHSSPNFGAIPSSTNVGSETY-NH2
modifications: disulfide 2-7
SMILES: CC[C@H](C)[C@H](NC(=O)[C@H](C)NC(=O)CNC(=O)[C@H](Cc1ccccc1)NC(=O)[C@H](CC(N)=O)NC(=O)[C@@H]1CCCN1C(=O)[C@H](CO)NC(=O)[C@H](CO)NC(=O)[C@H](Cc1c[nH]cn1)NC(=O)[C@H](CCCNC(=N)N)NC(=O)[C@H](CC(C)C)NC(=O)[C@H](Cc1ccccc1)NC(=O)[C@H](CCC(=O)O)NC(=O)[C@H](C)NC(=O)[C@H](CC(C)C)NC(=O)[C@H](CCCNC(=N)N)NC(=O)[C@H](CCC(N)=O)NC(=O)[C@@H](NC(=O)[C@H](C)NC(=O)[C@@H]1CSSC[C@H](NC(=O)[C@H](CCCCN)NC(=O)CC[C@H](NC(=O)CCCCCCCCCCCCCCCCCCC(=O)O)C(=O)O)C(=O)N[C@@H](CC(N)=O)C(=O)N[C@@H]([C@@H](C)O)C(=O)N[C@@H](C)C(=O)N[C@@H]([C@@H](C)O)C(=O)N1)[C@@H](C)O)C(=O)N1CCC[C@H]1C(=O)N[C@@H](CO)C(=O)N[C@@H](CO)C(=O)N[C@H](C(=O)N[C@@H](CC(N)=O)C(=O)N[C@H](C(=O)NCC(=O)N[C@@H](CO)C(=O)N[C@@H](CCC(=O)O)C(=O)N[C@H](C(=O)N[C@@H](Cc1ccc(O)cc1)C(N)=O)[C@@H](C)O)C(C)C)[C@@H](C)O
notes: also called compound 22

Target: T1, human amylin 3(a) receptor (human …)
Experiment: cell-based or functional assay

Binder | Ratio hCT/hAmylin funct. | hAmylin-R funct. EC50
B1 | 6.6 | 50 pM
B2 | 2.2 | 243 pM
B3 | 1.1 | 82 pM
B4 | 1.6 | 146 pM
B5 | 6.5 | 421 pM
B6 | 3.8 | 270 pM

Target: T2, human calcitonin receptor
Experiment: cell-based or functional assay

Binder | hCTR funct. EC50
B1 | 327 pM
B2 | 528 pM
B3 | 87 pM
B4 | 238 pM
B5 | 2740 pM
B6 | 1030 pM

Target: T1, human amylin 3(a) receptor (human …)
Experiment: SPA competition binding, displacement of 125I-rat amylin from membranes of Amylin 3(a)/CRE-luc BHK cells (Assay V)
How it was run: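 SPA beads with BHK Amylin 3(a)/CRE-luc cell membranes (35 ng/μL final) in 50 mM Hepes pH 7.4, 1 mM CaCl2, 5 mM MgCl₂, 0.1% OA, 0.02% Tween20.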

Binder | IC50
B1 | 0.1 nM
B2 | 0.915 nM
B3 | 0.072 nM
B4 | 0.196 nM
B5 | 0.232 nM
B6 | 0.794 nM
